# Key:
# [1] = target: HLA-A*29:02; assay: IEDB peptide-MHC binding, purified MHC/competitive/fluorescence; filed as Kd, often an IC50 or EC50 that approximates it; ≥ and ≤ were set here for values at or beyond the usual limits of such assays; conditions: source organism: Crocodilepox virus
# [2] = target: HLA-A*32:07; assay: as above; conditions: source organism: Crocodilepox virus
# [3] = target: HLA-B*15:42; assay: as above; conditions: source organism: Crocodilepox virus
# [4] = target: HLA-B*45:06; assay: as above; conditions: source organism: Crocodilepox virus
# [5] = target: HLA-B*83:01; assay: as above; conditions: source organism: Crocodilepox virus
# [6] = target: HLA-A*01:01; assay: IEDB peptide-MHC binding, purified MHC/direct/fluorescence; filed as Kd, often an IC50 or EC50 that approximates it; ≥ and ≤ were set here for values at or beyond the usual limits of such assays
# [7] = target: HLA-A*02:01; assay: as above
# [8] = target: HLA-A*02:11; assay: as above; conditions: source organism: Bacillus cereus 03BB108
# [9] = target: HLA-A*02:12; assay: as above; conditions: source organism: Bacillus cereus 03BB108
# [10] = target: HLA-A*02:19; assay: as above; conditions: source organism: Bacillus cereus 03BB108
# [11] = target: HLA-A*03:01; assay: as above
# [12] = target: HLA-A*26:03; assay: as above; conditions: source organism: Bacillus cereus 03BB108
# [13] = target: HLA-A*69:01; assay: as above
# [14] = target: HLA-B*07:02; assay: as above
# [15] = target: HLA-B*08:01; assay: as above
# [16] = target: HLA-B*08:02; assay: as above; conditions: source organism: Bacillus cereus 03BB108
# [17] = target: HLA-B*08:03; assay: as above
# [18] = target: HLA-B*15:01; assay: as above; conditions: source organism: Bacillus anthracis
# [19] = target: HLA-B*15:02; assay: as above; conditions: source organism: Bacillus cereus 03BB108
# [20] = target: HLA-B*15:17; assay: as above; conditions: source organism: Bacillus anthracis
# [21] = target: HLA-B*27:05; assay: as above
# [22] = target: HLA-B*35:01; assay: as above; conditions: source organism: Bacillus cereus 03BB108
# [23] = target: HLA-B*46:01; assay: as above
# [24] = target: HLA-B*48:01; assay: as above
# [25] = target: HLA-B*57:01; assay: as above
# [26] = target: HLA-B*58:01; assay: as above
# [27] = target: HLA-A*11:01; assay: IEDB peptide-MHC binding, purified MHC/competitive/fluorescence; filed as Kd, often an IC50 or EC50 that approximates it; ≥ and ≤ were set here for values at or beyond the usual limits of such assays; conditions: source organism: Bacillus anthracis str. A0488
# [28] = target: HLA-A*26:02; assay: as above
# [29] = target: HLA-A*68:02; assay: as above; conditions: source organism: Bacillus anthracis str. A0488
# [30] = target: HLA-B*15:09; assay: as above; conditions: source organism: Bacillus anthracis str. A0488
# [31] = target: HLA-B*39:01; assay: as above; conditions: source organism: Bacillus anthracis str. A0488
# [32] = target: HLA-A*01:01; assay: IEDB peptide-MHC binding, purified MHC/competitive/fluorescence; ≥ and ≤ were set here for values at or beyond the usual limits of such assays; conditions: source organism: Vaccinia virus WR
# [33] = target: HLA-A*02:01; assay: as above; conditions: source organism: Vaccinia virus WR
# [34] = target: HLA-A*03:01; assay: as above; conditions: source organism: Vaccinia virus WR
# [35] = target: HLA-A*11:01; assay: as above; conditions: source organism: Vaccinia virus WR
# [36] = target: HLA-A*24:02; assay: as above; conditions: source organism: Vaccinia virus WR
# [37] = target: HLA-B*15:01; assay: as above; conditions: source organism: Vaccinia virus WR
# [38] = target: HLA-A*11:01; assay: IEDB peptide-MHC binding, purified MHC/direct/fluorescence; filed as Kd, often an IC50 or EC50 that approximates it; ≥ and ≤ were set here for values at or beyond the usual limits of such assays; conditions: source organism: Camelpox virus M-96
# [39] = target: HLA-A*31:01; assay: as above; conditions: source organism: Camelpox virus M-96
# [40] = target: HLA-A*68:02; assay: as above; conditions: source organism: Camelpox virus M-96
# [41] = target: HLA-A*80:01; assay: as above; conditions: source organism: Camelpox virus M-96
# [42] = target: HLA-B*40:01; assay: as above; conditions: source organism: Camelpox virus M-96
# [43] = target: HLA-A*26:01; assay: IEDB peptide-MHC binding, purified MHC/competitive/fluorescence; filed as Kd, often an IC50 or EC50 that approximates it; ≥ and ≤ were set here for values at or beyond the usual limits of such assays; conditions: source organism: Vaccinia virus WR
# [44] = target: HLA-A*26:03; assay: as above; conditions: source organism: Vaccinia virus WR
# [45] = target: HLA-B*15:01; assay: as above; conditions: source organism: Vaccinia virus WR
# [46] = target: HLA-B*15:17; assay: as above; conditions: source organism: Vaccinia virus WR
# [47] = target: HLA-B*35:01; assay: as above; conditions: source organism: Vaccinia virus WR
# [48] = source organism: Bacillus anthracis
# [49] = source organism: Bacillus cereus 03BB108
# [50] = source organism: Camelpox virus M-96
sequence,measurement,setting,value
RVRSMANVY,Kd,[1],15.1 nM
same,Kd,[2],15.7 nM
same,Kd,[3],≥ 5 µM
same,Kd,[4],≥ 5 µM
same,Kd,[5],≥ 5 µM
KVQEWYLSY,Kd,[6]; [48],≥ 5 µM
same,Kd,[7]; [48],14.3 µM
same,Kd,[8],308 nM
same,Kd,[9],1630 nM
same,Kd,[10],≥ 20 µM
same,Kd,[11]; [48],132 nM
same,Kd,[12],≥ 20 µM
same,Kd,[13]; [48],15 µM
same,Kd,[14]; [48],5.54 µM
same,Kd,[15]; [49],≥ 20 µM
same,Kd,[16],≥ 20 µM
same,Kd,[17]; [49],324 nM
same,Kd,[18],443 nM
same,Kd,[19],1480 nM
same,Kd,[20],121 nM
same,Kd,[21]; [48],51.7 nM
same,Kd,[22],2060 nM
same,Kd,[23]; [48],≥ 20 µM
same,Kd,[24]; [48],≥ 20 µM
same,Kd,[25]; [48],≥ 20 µM
same,Kd,[26]; [48],3.62 µM
same,Kd,[27],42.2 nM
same,Kd,[28]; source organism: Bacillus anthracis str. A0488,1210 nM
same,Kd,[29],3.4 µM
same,Kd,[30],≥ 20 µM
same,Kd,[31],86.9 nM
SLFTEQAFY,IC50,[32],32 µM
same,IC50,[33],15 µM
same,IC50,[34],7.04 µM
same,IC50,[35],7.85 µM
same,IC50,[36],31.2 µM
same,IC50,[37],3.93 µM
same,Kd,[6]; [50],≥ 20 µM
same,Kd,[7]; [50],≥ 20 µM
same,Kd,[11]; [50],4410 nM
same,Kd,[38],1110 nM
same,Kd,[39],≥ 20 µM
same,Kd,[40],≥ 20 µM
same,Kd,[13]; [50],≥ 20 µM
same,Kd,[41],8.6 nM
same,Kd,[14]; [50],≥ 20 µM
same,Kd,[15]; source organism: Variola virus,≥ 20 µM
same,Kd,[17]; source organism: Variola virus,≥ 20000 nM
same,Kd,[21]; [50],≥ 20000 nM
same,Kd,[42],≥ 20 µM
same,Kd,[23]; [50],≥ 20 µM
same,Kd,[24]; [50],≥ 20 µM
same,Kd,[25]; [50],≥ 20 µM
same,Kd,[26]; source organism: Variola virus,≥ 20 µM
same,Kd,[43],≥ 5 µM
same,Kd,[28]; source organism: Vaccinia virus WR,≥ 20000 nM
same,Kd,[44],≥ 20 µM
same,Kd,[45],959 nM
same,Kd,[46],≥ 20 µM
same,Kd,[47],1150 nM

# From the Immune Epitope Database (IEDB)
